Source: patent publication US20260034230A1 (Regeneron, published 2026)

What was measured:
[1] = molecular target: T1, REGN2431 (hmm.hTfRC): monomeric human Tfrc ectodomain (C89-F760) with N-terminal hexahistidine-myc-myc tag (human, UniProt P02786 89-760); assay: SPR Biacore, IgG captured by anti-hFc, 25 C
T1 construct: also called hmm.hTfR(C89-F763); hTFR-mmh
Method: (§1) Biacore binding kinetics assays were conducted for the interaction of 32 anti-human TfR IgG1 monoclonal antibodies from CHO supernatants with TfR reagents at 25° C.
(§2) Equilibrium dissociation constants (KD) for the interaction of anti-TfR monoclonal antibodies with human and fascicularis monkey TfR ecto domain recombinant proteins were determined using a real-time surface plasmon resonance (SPR) based Biacore S200 biosensor. All binding studies were performed in 10 mM HEPES, 150 mM NaCl, 3 mM EDTA, and 0.05% v/v surfactant Tween-20, pH 7.4 (HBS-EP) running buffer at […]. The Biacore CM5 sensor surface was first derivatized by amine coupling with a monoclonal mouse anti-human Fc antibody (REGN2567) followed by a step to capture anti-TfR monoclonal antibodies in CHO conditioned media. […] The dissociation of TfR bound to anti-TfR monoclonal antibodies was monitored for 3 minutes in HBS-EP running buffer. At the end of each cycle, the anti-TfR monoclonal antibodies capture surface was regenerated using a 12-see injection of 20 mM H₃PO₄. The association rate (ka) and dissociation rate (kd) were determined by fitting the real-time binding sensorgrams to a 1:1 binding model with mass transport limitation using Scrubber 2.0c software. The dissociation equilibrium constant (KD) and dissociative half-life (t %) were calculated from the kinetic rate constants as: […]

[2] = molecular target: T2, REGN2054 (mf TFRC ecto-mmh): monomeric monkey (cyno) Tfrc ectodomain (C89-F760) with C-terminal … (monkey (cyno, Macaca fascicularis), UniProt H9EXL1 89-760); assay: SPR Biacore, IgG captured by anti-hFc, 25 C
T2 construct: range 89-760; also called mfTFR-mmh; mfTfR-mmh
Method: as §1, §2

T1 sequence (P02786 other isoform, or with tags, fused parts or gaps): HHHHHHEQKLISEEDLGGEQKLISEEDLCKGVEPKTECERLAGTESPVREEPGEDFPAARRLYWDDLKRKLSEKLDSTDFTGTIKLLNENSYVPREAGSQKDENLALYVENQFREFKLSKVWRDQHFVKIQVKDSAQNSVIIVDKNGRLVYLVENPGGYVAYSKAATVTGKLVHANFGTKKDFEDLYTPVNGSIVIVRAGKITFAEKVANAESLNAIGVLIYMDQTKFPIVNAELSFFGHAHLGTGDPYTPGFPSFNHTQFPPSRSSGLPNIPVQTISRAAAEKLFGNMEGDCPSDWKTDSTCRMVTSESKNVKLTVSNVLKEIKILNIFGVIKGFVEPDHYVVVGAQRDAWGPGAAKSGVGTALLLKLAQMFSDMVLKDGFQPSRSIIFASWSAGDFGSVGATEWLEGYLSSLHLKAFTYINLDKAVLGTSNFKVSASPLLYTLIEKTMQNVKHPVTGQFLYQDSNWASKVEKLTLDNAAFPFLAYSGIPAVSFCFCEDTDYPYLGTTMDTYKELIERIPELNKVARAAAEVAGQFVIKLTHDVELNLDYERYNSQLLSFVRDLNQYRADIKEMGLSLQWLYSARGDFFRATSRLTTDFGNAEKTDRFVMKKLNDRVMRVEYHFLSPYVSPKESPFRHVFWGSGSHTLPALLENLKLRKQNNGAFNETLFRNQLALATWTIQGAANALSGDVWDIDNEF
T2 sequence (chain, as listed by the source): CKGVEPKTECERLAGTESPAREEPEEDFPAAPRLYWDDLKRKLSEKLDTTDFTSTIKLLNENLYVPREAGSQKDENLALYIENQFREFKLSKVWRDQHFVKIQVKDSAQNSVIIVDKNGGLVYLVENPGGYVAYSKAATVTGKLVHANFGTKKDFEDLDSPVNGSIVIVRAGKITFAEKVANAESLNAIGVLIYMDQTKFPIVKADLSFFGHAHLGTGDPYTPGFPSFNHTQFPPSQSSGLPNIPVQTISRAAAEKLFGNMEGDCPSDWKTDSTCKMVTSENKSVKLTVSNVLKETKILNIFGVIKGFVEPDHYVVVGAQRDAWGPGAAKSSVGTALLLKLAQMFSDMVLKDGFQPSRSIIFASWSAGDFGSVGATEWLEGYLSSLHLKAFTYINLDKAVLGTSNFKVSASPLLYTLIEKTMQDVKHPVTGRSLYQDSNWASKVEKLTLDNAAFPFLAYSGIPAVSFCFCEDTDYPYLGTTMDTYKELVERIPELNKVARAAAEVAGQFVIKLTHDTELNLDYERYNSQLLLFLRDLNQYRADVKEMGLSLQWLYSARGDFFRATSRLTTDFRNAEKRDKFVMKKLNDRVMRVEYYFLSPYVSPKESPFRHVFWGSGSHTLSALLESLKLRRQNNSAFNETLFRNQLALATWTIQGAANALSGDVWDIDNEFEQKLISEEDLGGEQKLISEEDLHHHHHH

B1: 69307 anti-hTfR monoclonal antibody (bivalent IgG1) (antibody, V domains shown)
VH: EVQLVESGGGLVQPGGSLRLSCTASGFTFSNYWMTWVRQAPGKGLEWVANIKEDGSEKEYVDSVKGRFTISRDNAKNSLYLQMNSLRGEDTAVYYCARDGEQLVDYYYYYVMDVWGQGTTVTVSS
VL: DIQMTQSPSSVSASVGDRVTITCRASQGISSWLAWYQQKPGKAPKLLIYAASSLQSGVPSRFSGSGSGTDFTLTISSLQPEDFATYYCQKADSLPYAFGQGTKLEIKR
notes: hIgG1/kappa
Work on B1 yielded a t1/2 [1] of 271 min.

B2: 12812B anti-hTfR monoclonal antibody (bivalent IgG1) (antibody, V domains shown)
VH: QVQLVQSGAEVKKPGSSVRVSCKASRGTFSSYAISWVRQAPGQGLEWMGGIIPIFGTANYAQKFLARVTITADESTSTAYMELSSLRSEDTAVYYCAREKGWNYFDYWGQGTLVTVSS
VL: DIQMTQSPPSVSASVGDRVTITCRASQGISSWLAWYQQKPGKAPKLLIYAASSLQSGVPSRFSGSGSGTDFTLTISSLQPEDFATYYCQQANSFPRTFGQGTKVEIKR
notes: hIgG1/kappa; also called H1H12812B; REGN17708
With B2 the t1/2 [1] was 8.8 min.

B3: 69329 anti-hTfR monoclonal antibody (bivalent IgG1) (antibody, V domains shown)
VH: EVQLVESGGGLVQPGGSLRLSCAASGFTFSNYWMTWVRQAPGKGLEWVANIKEDGSEKDYVDSVKGRFTISRDNAKNSLYLQMNSLRGEDTAVYYCARDGEQLVDYYYYYVMDVWGQGTTVTVSS
VL: DIQMTQSPSSVSASVGDRVTITCRASQGISSWLAWYQQKPGKAPKLLIYAASSLQSGVPSRFSGSGSGTDFTLTISSLQPEDFATYYCQKANSFPYTFGQGTKLEIKR
notes: hIgG1/kappa
For B3, the t1/2 [1] was 62.2 min.

B4: 12841B anti-hTfR monoclonal antibody (bivalent IgG1) (antibody, V domains shown)
VH: EVQLVESGGGLVQPGGSLRLSCAASGFTFSNYWMNWVRQAPGKGLEWVANIKEDGGKKLYVDSVKGRFTISRDNAKNSLFLQMNSLRAEDTAVYYCAREDTTLVVDYYYYGMDVWGQGTTVTVSS
VL: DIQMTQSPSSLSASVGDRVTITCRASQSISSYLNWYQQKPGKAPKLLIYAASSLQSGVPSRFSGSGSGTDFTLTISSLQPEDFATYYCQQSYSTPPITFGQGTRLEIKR
notes: hIgG1/kappa; also called H1H12841B; REGN17511
With B4 the t1/2 [1] was 99.8 min.

B5: 12850B anti-hTfR monoclonal antibody (bivalent IgG1) (antibody, V domains shown)
VH: QVQLVQSGAEVKKPGSSVKVSCKASGGTFNTYAITWVRQAPGQGLEWMGGIIPISGIAEYAQKFQGRVTITTDDSSTTAYMELNSLRSEDTAVYYCASWNYALYYFYGMDVWGRGTTVTVSS
VL: not shown
notes: hIgG1/kappa; also called H1H12850B; REGN17516
Work on B5 yielded a t1/2 [2] of 7.3 min and a t1/2 [1] of 657 min.

B6: 12816B anti-hTfR monoclonal antibody (bivalent IgG1) (antibody, V domains shown)
VH: QVQLVESGGGLVKPGGSLRLSCAASGFTFSDYYMNWIRQAPGKGLEWVSYISSSGTTIYYADSVKGRFTISRDNAKKSLYLEMNSLRAEDTAVYYCAREGYGNDYYYYGIDVWGQGTTVTVSS
VL: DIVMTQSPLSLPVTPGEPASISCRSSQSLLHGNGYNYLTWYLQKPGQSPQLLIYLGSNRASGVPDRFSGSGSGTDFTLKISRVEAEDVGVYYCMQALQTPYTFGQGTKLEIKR
notes: hIgG1/kappa
B6 gave a t1/2 [2] of 23.8 min and a t1/2 [1] of 34.3 min.

B7: 69261 anti-hTfR monoclonal antibody (bivalent IgG1) (antibody, V domains shown)
VH: QVQLVESGGGLVKPGGSLRLSCAASGFTFSVYYMNWIRQAPGKGLEWVSYISSSGSTIYYADSVKGRFTISRDNAKNSLYLQMNSLRAEDTAVYYCGREGYSGTYSYYGMDVWGQGTTVTVSS
VL: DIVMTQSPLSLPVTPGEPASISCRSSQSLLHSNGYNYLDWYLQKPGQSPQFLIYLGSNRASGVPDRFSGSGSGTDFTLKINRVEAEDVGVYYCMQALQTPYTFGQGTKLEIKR
notes: hIgG1/kappa
B7 showed a t1/2 [2] of 28.7 min and a t1/2 [1] of 143 min.

B8: 69323 anti-hTfR monoclonal antibody (bivalent IgG1) (antibody, V domains shown)
VH: EVQLVESGGGLVQPGRSLRLSCAASGFTFDDYAMHWVRQAPGKGLEWVSGISWNSGYIGYADSVKGRFTISRDNAENSLHLQMNSLRAEDTALYYCARGGSTLVRGVKGGYYGMDVWGQGTTVTVSS
VL: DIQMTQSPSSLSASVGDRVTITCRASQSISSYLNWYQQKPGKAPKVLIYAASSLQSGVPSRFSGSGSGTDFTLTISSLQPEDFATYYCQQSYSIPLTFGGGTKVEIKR
notes: hIgG1/kappa
For B8, the t1/2 [2] was 1.1 min and the t1/2 [1] was 64.1 min.

B9: 12845B anti-hTfR monoclonal antibody (bivalent IgG1) (antibody, V domains shown)
VH: EVQLVESGGGLVQPGGSLRLSCAASGFTVSNYEMNWVRQAPGKGLEWVSYISSSTSNIYYADSVKGRFTISRDNAENSLYLQMNSLRVEDTAVYYCVRDGIVVVPVGRGYYYYGLDVWGQGTTVTVSS
VL: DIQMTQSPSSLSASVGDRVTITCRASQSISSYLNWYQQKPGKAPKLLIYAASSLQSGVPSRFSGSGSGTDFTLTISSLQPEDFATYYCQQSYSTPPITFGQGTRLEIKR
notes: hIgG1/kappa; also called H1H12845B; REGN17513
B9 was tested, and the t1/2 [1] was 57.9 min.

B10: 69340 anti-hTfR monoclonal antibody (bivalent IgG1) (antibody, V domains shown)
VH: EVQLVESGGGLVQPGRSLRLSCAASGFTFDDKAMHWVRQVPGKGLEWISGISWNSGTIGYADSVKGRFIISRDNAKNSLYLQMNSLRAEDTALYYCAKDGDTSGWYWYGLDVWGQGTTVTVSS
VL: EIVLTQSPATLSLSPGERATLSCRASQSVSSYLAWYQQKPGQAPRLLIHDVSNRATGIPARFSGSGSGTDFTLTISSLEPEDFVVYYCQQRSDWPITFGQGTRLEIKR
notes: hIgG1/kappa
Work on B10 yielded a t1/2 [2] of 16 min and a t1/2 [1] of 185 min.

B11: 69326 anti-hTfR monoclonal antibody (bivalent IgG1) (antibody, V domains shown)
VH: EVQLVESGGGLVQPGGSLRLSCAVSGFIFSSYEMNWVRQAPGKGLEWVSYISSSGSTIFYADSVKGRFTISRDNAKNSLYLQMNSLRAEDTAVYYCVSGVVLFDVWGQGTMVTVSS
VL: EIVMTQSPATLSVSPGERATLSCRASQSVSSNFAWYQQKPGQAPRLLIYSASSRATGIPVRFSGSGSGTEFTLTISSLQSEDFAVYYCQQYNIWPRTFGQGTKVEIKR
notes: hIgG1/kappa
For B11, the t1/2 [1] was 45.1 min.

B12: 12839B anti-hTfR monoclonal antibody (bivalent IgG1) (antibody, V domains shown)
VH: QVQLVESGGGVVQPGRSLRLSCAASGFPFSNYVMYWVRQAPGKGLEWVALIFFDGKKNYHADSVKGRFTITRDNSKNMLYLQMNSLRPEDAAVYYCAKIHCPNGVCYKGYYGMDVWGQGTTVTVSS
VL: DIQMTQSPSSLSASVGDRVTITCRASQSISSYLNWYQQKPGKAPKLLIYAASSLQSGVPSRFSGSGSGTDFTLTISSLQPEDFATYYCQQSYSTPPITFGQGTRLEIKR
notes: hIgG1/kappa; also called H1H12839B; REGN17510
Binder B12 has a t1/2 [1] of 217 min.

B13: 12834B anti-hTfR monoclonal antibody (bivalent IgG1) (antibody, V domains shown)
VH: QVQLVQSGAEVKKPGASVKVSCKASGYTFTSYGISWVRQAPGQGLEWMGWISVYHGNTNYAQKFQGRVTMTTDTSTSTAYMELRSLRSDDTAVYYCAREGYYDFWSGYYPFDYWGQGTLVTVSS
VL: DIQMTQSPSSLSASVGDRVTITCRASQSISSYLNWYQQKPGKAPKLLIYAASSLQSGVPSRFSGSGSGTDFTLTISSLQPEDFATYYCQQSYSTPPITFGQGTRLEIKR
notes: hIgG1/kappa
B13 gave a t1/2 [1] of 2.6 min.

B14: 31863B anti-hTfR monoclonal antibody (bivalent IgG1) (antibody, V domains shown)
VH: EVQLVESGGGLVQPGGSLRLSCAASGFTFNSYAMTWVRQAPGKGLEWVSFIGGSTGNTYYAGSVKGRFTISSDNSKKTLYLQMNSLRAEDTAVYYCAKGGAARRMEYFQHWGQGTLVTVSS
VL: DIQMTQSPSSLSASIGDRVTITCRASQGISNYLAWYQQKPGKVPKLLIYAASTLQSGVPSRFSGSGSGTDFTLTISSLQPEDVATYYCQNHNSVPLTFGGGTKVEIKR
notes: hIgG1/kappa
Binder B14 has a t1/2 [2] of 3.9 min and a t1/2 [1] of over 1160 min.

B15: 31874B anti-hTfR monoclonal antibody (bivalent IgG1) (antibody, V domains shown)
VH: EVQLVESGGGLVQPGGSLRLSCAASGFAFSSYAMTWVRQAPGKGLEWVSVISGTGGSTYYADSVKGRFTISRDNSKNTLYLQMNSLRAEDTAVYYCAKGGAARRMEYFQYWGQGTLVTVSS
VL: DIQMTQSPSSLSASVGDRVTITCRASQGISNYLAWYQQKPGKVPNLLIYAASTLQSGVPSRFSGSGSGTDFTLTISSLQPEDVATYYCQKYNSAPLTFGGGTKVEIKR
notes: hIgG1/kappa; also called H1H31874B; REGN17517
B15 was tested, and the t1/2 [2] was 1.2 min and the t1/2 [1] was 100 min.

B16: 69331 anti-hTfR monoclonal antibody (bivalent IgG1) (antibody, V domains shown)
VH: QVQLVESGGGVVQPGRSLRLSCIASGFTFSVYGIHWVRQAPGKGLEWMAVISHDGNIKHYADSVKGRFTISRDNSKNTLYLQINSLRTEDTAVYYCAKDTWNSLDTFDIWGQGTMVTVSS
VL: DIQLTQSPSSLSASVGDRVTITCWASQGISSYLAWYQQKPGKAPKLLIYAASTLQSGVPSRFSGSGSGTEFTLTISSLQPEDFATYYCQQLNSYPLTFGGGTKVEIKR
notes: hIgG1/kappa
With B16 the t1/2 [2] was 1.2 min and the t1/2 [1] was 2.5 min.

B17: 69263 anti-hTfR monoclonal antibody (bivalent IgG1) (antibody, V domains shown)
VH: EVQLVESGGGLVQPGRSLRLSCAVSGFTFDDYAMHWVRQAPGKGLEWVSGISWNSGTRGYADSVKGRFTISRDNAKNSLYLQMNSLRGEDTALYYCVKDITISPNYYGMDVWGQGTTVTVSS
VL: DIQMTQSPSSLSASVGDRVTITCRASQDISHYSAWYQQKPGKLPNLLIYAASTLQSGVPSRFSGSGSGTDFSLTTSSLQPEDVATYYCQKYNSVPLTFGGGTKVEIKR
notes: hIgG1/kappa
For B17, the t1/2 [2] was 3.1 min and the t1/2 [1] was 10 min.

B18: 12833B anti-hTfR monoclonal antibody (bivalent IgG1) (antibody, V domains shown)
VH: QVQLVESGGGVVQPGRSLRLSCAASGFTFSSFGMHWVRQAPGKGLEWVIFISYDGSDKYYADSVKGRFAISRDSSKNTLYLQMNSLRAEDTAVYYCAKENGILTDSYGMDVWGQGTTVTVSS
VL: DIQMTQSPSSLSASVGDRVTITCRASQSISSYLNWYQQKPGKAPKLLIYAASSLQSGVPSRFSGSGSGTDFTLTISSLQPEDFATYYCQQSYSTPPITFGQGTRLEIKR
notes: hIgG1/kappa
B18 gave a t1/2 [2] of 23.8 min and a t1/2 [1] of 45.9 min.
